In patent publication US20260132208A1 (DOMAIN THERAPEUTICS, published 2026):
Changes are numbered by the printed parent chain. Several values for one entry are separate records, joined by “and”; a condition that tells them apart may be missing. Equal values may be shown once.

B1: anti-CCR8 mAb 1-3 (antibody, V domains shown)
VH: KVQLQQSGPELVKPGASVKISCKTSGYTFTEYTIHWVQQIHGKSPEWIGGINPNGDTRYDQKFKGKATLTIDKSSSTAYMELRSLTSEDSAVYYCARVARFYGISPYAMDYWGQGTSVTVSS
VL: DVVMTQTPLSLPVSLGDQASISCRCTQSLLHSNGDTYLHWYLQKPGQSPNLLIYKVSNRFSGVPDRFSGSGSGTDFTLKINRVEAEDLGVYFCSQSTHVPYTFGGGTNLEIK
notes: Murine hybridoma mAb
B2: anti-CCR8 mAb 1-5 (antibody, V domains shown)
VH: QVQLKESGPGLVAPSQSLSITCTVSGLSMNDYVVTWIRQPPGKGLEWLGVIWGGGNTYYNSDLKSRLSITKDNSKSQVFFKMSSLQTDDTAVYYCARRHRDYALDYWGQGISVTVSS
VL: B1 VL with C25S, T26S, L30V, H31Y, D35N, N50K, N81S, H98Y, Y101P, N108K
notes: Murine hybridoma mAb
B3: anti-CCR8 mAb 1-18 (antibody, V domains shown)
VH: QVQVQQSGAELARPGASVKMSCKASGYTFTTYAMHWVKQRPGQGLEWIGHINPSSGYSNYNQKFKDKATLTADKSSSTAYMQLSSLTSEDSAVYYCARSEVRRGYFDVWGAGTTVTVSS
VL: DIQMTQTTSSLSASLGDRVTISCRTSQDIRNYLNWYQQKPDGTVKLLISYTSRLHSGVPSRFSGSGSGTDYSLTISNLEQEDFATYFCQQGNTLPPTFGGGTRVEIK
notes: Murine hybridoma mAb
B4: anti-CCR8 mAb 1-6 (antibody, V domains shown)
VH: EVQLQQSGPELLKPGTSVKISCTTSGYTFSDYTLHWVKQSHGKSLEWIGGITPKNGDTRYDPRFKDKATLTIDKSSSAAYMELRSLTSEDSAVYYCARVARFYGVSPYAMDYWGQGASVTVSS
VL: B1 VL with N50K, K79E, N81T, S96T, N108K
notes: Murine hybridoma mAb
B5: Ref #1 (antibody, human IgG1, V domains shown)
VH: EVQLLESGGGLVQPGGSLRLSCAASGFTFSSYGMHWVRQAPGKGLEWVSAINWNGGSTGYADSVKGRFTISRDNSKNTLYLQMNSLRAEDTAVYYCARGHHSGYDGRFFDYWGQGTLVTVSS
VL: QSVLTQPPSVSGAPGQRVTISCTGSSSNIGAGYNVHWYQQLPGTAPKLLIYTNNRRPSGVPDRFSGSKSGTSASLAISGLRSEDEADYYCAAWDASLSGWVFGGGTKLTVL
notes: Benchmark; cloned into vectors encoding heavy and light chains of human IgG1, produced in CHO; also called TPP-21360 of WO 2021/260210
B6: anti-CCR8 mAb 1-28 (antibody, human IgG1, kappa, V domains shown)
VH: EVQLVESGGGLVQPTGSLRLSCAASGFTFNAYAMNWVRQAPGKGLEWVARIRSKSNDYATYYGDSVKDRFTISRDDSQSMLYLQMNNLKTEDTAMYYCVRGREAYYRYDGGYYAMDYWGQGTSVTVSS
VL: DIVMTQAAPSVSVTPGESVSISCTSSKSLLHSNGNTYLYWFLQRPGQSPQLLIYRMSNLASGVPDRFSGSGSGTAFTLRISRVEAEDVGVYYCMQHREYPFTFGSGTKLEIKR

target: T1, human CCR8 (human, UniProt P51685 1-355); test: flow cytometry, inhibition of hCCL1-AF647 (10 nM) binding to hCCR8-CHO cells
T1 construct: also called hCCR8; CC chemokine receptor 8
In short: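 hCCR8-transfected CHO cells preincubated 30 min at 4 °C with anti-CCR8 mAb (8 concentrations, top 10 μg/mL, 1/3 dilutions), washed, then exposed to labelled CCL1. Bound CCL1 quantified by flow cytometry; IC₅₀ of binding blockade from sigmoidal variable-slope fit.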

Binder	IC50
B1	1.29 µg/mL and 8.62 nM
B2	15.2 nM and 2.65 µg/mL
B3	0.22 µg/mL and 1.46 nM
B4	1.3 µg/mL and 8.71 nM
B5	0.65 µg/mL

target: T2, human CCR8 with a SNAP-tag at the N-terminus (human, UniProt P51685 1-355, SNAP-tag labelled covalently with Lumi4-Terbium); test: HTRF Tag-lite, inhibition of hCCL1-AF647 binding to SNAP-hCCR8 on HEK-293 cells
T2 construct: also called hCCR8 SNAP-tag; CCR8 SNAP-tag
Description: The inhibition of CCL1 binding to hCCR8 was evaluated with the Tag-Lite® technology from Cisbio (Revvity). Human CCR8 is engineered with a SNAP-tag at the N-terminus of the GPCR. hCCR8 SNAP-tag is transiently transfected on HEK-293 cell line using FuGene® (Promega, Madison, WI, USA). 48 hours after transfection, cells are labeled with the substrate Lumi4-Terbium® (Cisbio, Codolet, France) which covalently reacts with the SNAP-tag, for 1 h at 37° C. Thawed or freshly labeled cells are plated in a 384 low volume white plate (GREINER Bio-One, Courtaboeuf, France) (10000 cells/well/10 μl). […] The Kd was previously obtained in a saturation binding assay on the same cells. […] The plate is next incubated at 21° C. for 2 h. Detection of HTRF signal is performed on the multiplate reader EnVision (PerkinElmer, Waltham, MA, USA). The HTRF (665/620) ratio is calculated by EnVision software, the data exported are considered as the total binding. The specific binding is calculated then by subtracting the non-specific signal from the total binding. The Ki and IC₅₀ are calculated using the “One site-Fit Ki” and “One site-FitlogIC50” from GraphPad Prism 9 (Graphpad Software, San Diego, CA, USA), respectively.

Binder	IC50 [µg/mL]	Ki [µg/mL]
B5	0.45	0.23

target: T3, pwt1 (none (unmodified peptide)); test: ELISA on coated peptide [cont.]
T3 construct: also called unmodified CCR8 N-terminal peptide
T3 sequence (peptide, as listed by the source): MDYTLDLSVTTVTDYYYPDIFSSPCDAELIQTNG
In short: (§1)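 Wells were coated with CCR8-related peptides at 500 ng/ml in carbonate/bicarbonate buffer. Anti-CCR8 mAbs were tested from 1 μg/mL in 1/10 dilutions and bound for 90 min at room temperature. Detection used TMB for 15 min with an optical density read-out.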

Binder	binding result
B1	binds
B2	binds
B3	binds
B4	binds

target: T4, pm1 (sulfated tyrosine(s) among Y15, Y16, Y17; which ones is not told (the underlining of Table 1 is lost in the text)); test: ELISA on coated peptide [cont.]
T4 construct: also called sulfated CCR8 N-terminal peptide pm1
T4 sequence (peptide, as listed by the source): as above
In short: as §1

Binder	binding result
B1	binds
B2	binds
B3	binds
B4	binds

target: T5, pm2 (sulfated tyrosine(s) among Y15, Y16, Y17; which ones is not told (the underlining of Table 1 is lost in the text)); test: ELISA on coated peptide [cont.]
T5 construct: also called sulfated CCR8 N-terminal peptide pm2
T5 sequence (peptide, as listed by the source): as above
In short: as §1

Binder	binding result
B1	binds
B2	binds
B3	binds
B4	binds

target: T6, pm4 (sulfated tyrosine(s) among Y15, Y16, Y17; which ones is not told (the underlining of Table 1 is lost in the text)); test: ELISA on coated peptide [cont.]
T6 construct: also called sulfated CCR8 N-terminal peptide pm4
T6 sequence (peptide, as listed by the source): as above
In short: as §1

Binder	binding result
B1	binds
B3	binds
B4	binds

target: T7, pm5 (Y15 and Y17 sulfated; Y16 not sulfated); test: ELISA on coated peptide [cont.]
T7 construct: also called sulfated CCR8 N-terminal peptide pm5
T7 sequence (peptide, as listed by the source): as above
In short: as §1

Binder	binding result
B1	binds
B2	binds
B3	binds
B4	binds

target: T8, pm6 (Y16 and Y17 sulfated; Y15 not sulfated); test: ELISA on coated peptide [cont.]
T8 construct: also called sulfated CCR8 N-terminal peptide pm6
T8 sequence (peptide, as listed by the source): as above
In short: as §1

Binder	binding result
B1	binds
B2	binds
B3	binds
B4	binds

target: T9, pm8 (Y15, Y16 and Y17 sulfated); test: ELISA on coated peptide [cont.]
T9 construct: also called sulfated CCR8 N-terminal peptide pm8
T9 sequence (peptide, as listed by the source): as above
In short: as §1

Binder	binding result
B1	binds
B2	binds
B3	binds
B4	binds

target: T10, pm3 (Y17 sulfated; Y15 and Y16 not sulfated); test: ELISA on coated peptide [cont.]
T10 construct: also called sulfated CCR8 N-terminal peptide pm3
T10 sequence (peptide, as listed by the source): as above
In short: as §1

Binder	binding result
B1	binds
B2	binds
B3	binds
B4	binds

target: T1, human CCR8; test: cell-based or functional assay

Binder	residual hCCL1 (100 nM) Gi2 response, protocol #2, mAb 0.08 µg/mL [%]	residual hCCL1 (100 nM) Gi2 response, protocol #2, mAb 0.4 µg/mL [%]	residual hCCL1 (100 nM) Gi2 response, protocol #2, mAb 10 µg/mL [%]	residual hCCL1 (100 nM) Gi2 response, protocol #3, mAb 0.05 µg/mL [%]	residual hCCL1 (100 nM) Gi2 response, protocol #3, mAb 0.5 µg/mL [%]	residual hCCL1 (100 nM) Gi2 response, protocol #3, mAb 5 µg/mL [%]
B1	101	93	100	92	81	73
B2	99	97	97	99	84	75
B3	52	68	53	76	62	59
B4	79	38	17	102	64	47

target: T2, human CCR8 with a SNAP-tag at the …; test: cell-based or functional assay

Binder	% hCCR8 internalization with CCL1 300 nM, mAb 1 µg/ml (HTRF) [%]	% hCCR8 internalization with CCL1 300 nM, mAb 10 µg/ml (HTRF) [%]
B5	126	111

target: T1, human CCR8; test: flow cytometry, hCCR8-transfected CHO-K1 cells
In short: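 Antibody incubation ran 30 min at 4° C, followed by fluorescent anti-mouse or anti-human IgG secondary for 30 min at 4° C. Isotype-matched mAbs served as nonspecific-binding controls.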

Binder	% positive cells [%]	MFI fold change to isotype ctrl [fold]
B1	85.7	9.8
B2	85.2	11.9
B3	77	9.2
B4	81.1	10.7
B5	75.1	–

target: T1, human CCR8; test: cell-based or functional assay; remark: another data set of the same source

Binder	extrapolated top plateau of hCCL1 curve with 5 µg/mL mAb, protocol #3
B1	663 % of hCCL1 (100 nM)
B2	133 % of hCCL1 (100 nM)
B3	948 % of hCCL1 (100 nM)
B4	667000 % of hCCL1 (100 nM)

target: T1, human CCR8; test: cell-based or functional assay; remark: another data set of the same source

Binder	IC50 of CCL1-induced hCCR8 Gi2 signaling (BRET), pH 6.5	IC50 of CCL1-induced hCCR8 Gi2 signaling (BRET), pH 7.4
B1	0.051 µg/ml and 0.34 nM	0.059 µg/ml and 0.396 nM
B2	0.414 µg/ml and 2.76 nM	0.359 µg/ml and 2.4 nM
B4	0.044 µg/ml and 0.292 nM	0.061 µg/ml and 0.405 nM

target: T1, human CCR8; test: cell-based or functional assay; remark: another data set of the same source

Binder	IC50 of CCL1-induced hCCR8 Gi2 signaling (BRET, HEK-293)
B1	0.069 µg/mL and 0.462 nM
B2	0.143 µg/mL and 0.954 nM
B3	0.004 µg/mL and 0.029 nM
B4	0.049 µg/mL and 0.328 nM
B5	0.101 µg/mL and 0.675 nM

target: T1, human CCR8; test: cell-based or functional assay; remark: another data set of the same source

Binder	ADCC % max lysis, HUT78 targets, NK donor 1 [%]	ADCC % max lysis, HUT78 targets, NK donor 2 [%]	ADCC EC50, HUT78 targets, NK donor 1 [nM]	ADCC EC50, HUT78 targets, NK donor 2 [nM]
B6	31	26	0.0733	0.0904
